Test results reported in patent US20220133889A1 (published 2022).

Assays:
[1] = target: T1, cynomolgus TIM-3 expressed on transfected cells (cynomolgus, UniProt A0A2K5U3G7 22-294); assay: cell binding (FACS); cyno TIM-3 cells
T1 chain: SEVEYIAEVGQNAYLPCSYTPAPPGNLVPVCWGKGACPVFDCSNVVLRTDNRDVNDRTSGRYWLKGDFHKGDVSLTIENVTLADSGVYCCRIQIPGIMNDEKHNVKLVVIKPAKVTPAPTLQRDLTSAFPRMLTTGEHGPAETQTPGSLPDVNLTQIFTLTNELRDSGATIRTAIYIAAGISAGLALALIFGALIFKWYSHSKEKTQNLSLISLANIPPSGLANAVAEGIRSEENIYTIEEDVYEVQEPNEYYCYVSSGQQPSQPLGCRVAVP

[2] = target: TIM-3 (assay antigen; species and construct not stated) (UniProt Q8TDQ0 22-202); assay: SPR (BIAcore)
[3] = target: human TIM-3 expressed on cells (UniProt Q8TDQ0 22-301); assay: cell binding (FACS); TIM-3-transfected 300.19 cells

B1: ABTIM3 (antibody, V domains shown)
VH: QVQLQQPGAELVKPGASVKMSCKASGYTFTSYNMHWIKQTPGQGLEWIGDIYPGNGDTSYNQKFKGKATLTADKSSSTVYMQLSSLTSEDSAVYYCARVGGAFPMDYWGQGTSVTVSS
VL: DIVLTQSPASLAVSLGQRATISCRASESVEYYGTSLMQWYQQKPGQPPKLLIYAASNVESGVPARFSGSGSGTDFSLNIHPVEEDDIAIYFCQQSRKDPSTFGGGTKLEIK
[1]
  Kd: 0.68 nM
[2]
  Kd: 0.042 nM
[3]
  Kd: 0.16 nM
